The source of these data is US20190322765A1 (Hoffmann-La Roche, published 2019).

Where “and” joins values, the source holds several entries; their conditions need not be identical. Identical values can stand only once.

For assay [1], the target named is T1, human IL-2R α-subunit, monomeric, with AcTev cleavage site and Avi His tag (human).
T1 construct: also called Hu IL-2R α; CD25
T1 chain: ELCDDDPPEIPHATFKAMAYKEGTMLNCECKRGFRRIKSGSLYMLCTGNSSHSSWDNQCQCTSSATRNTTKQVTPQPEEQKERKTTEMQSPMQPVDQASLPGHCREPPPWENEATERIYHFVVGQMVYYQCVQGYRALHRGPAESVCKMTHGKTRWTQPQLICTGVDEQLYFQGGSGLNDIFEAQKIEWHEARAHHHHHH
The experiment in a line: SPR, receptor on CM5, 25°C.

Assay [2] deals with T2, human FAP expressed on stably transfected HEK293 cells (human, UniProt Q12884 1-760).
T2 construct: whole, on cells
The experiment in a line: FACS on FAP-expressing HEK cells.

For assay [3], the target named is T3, human DPPIV on transfected HEK 293 cells (human, UniProt P27487 1-766).
T3 construct: whole, on cells; also called CD26
Put plainly: FACS on HEK 293-human DPPIV cells, with HEK mock-transfected cells, cells only and sec. antibody as controls; concentration not shown.

Assay [4] has as its target T4, human IL-2R βγ heterodimer, subunit-Fc knobs-into-holes fusion (human).
T4 construct: The entries may hold a leader peptide; also called Hu IL-2R βγ; human IL2-R β knob γ hole heterodimer
The experiment in a line: SPR, receptor on CM5, 25°C, apparent KD, 1:1 fit. A general note: Surface plasmon resonance follows binding to a sensor surface in real time, without labels.

Assay [5] deals with T5, IL-2R βγ heterodimer on human cells (NK92 cells, NK and T cells of PBMC) (human, UniProt P14784 27-551; P31785 23-369).
T5 sequence (looked up) 1: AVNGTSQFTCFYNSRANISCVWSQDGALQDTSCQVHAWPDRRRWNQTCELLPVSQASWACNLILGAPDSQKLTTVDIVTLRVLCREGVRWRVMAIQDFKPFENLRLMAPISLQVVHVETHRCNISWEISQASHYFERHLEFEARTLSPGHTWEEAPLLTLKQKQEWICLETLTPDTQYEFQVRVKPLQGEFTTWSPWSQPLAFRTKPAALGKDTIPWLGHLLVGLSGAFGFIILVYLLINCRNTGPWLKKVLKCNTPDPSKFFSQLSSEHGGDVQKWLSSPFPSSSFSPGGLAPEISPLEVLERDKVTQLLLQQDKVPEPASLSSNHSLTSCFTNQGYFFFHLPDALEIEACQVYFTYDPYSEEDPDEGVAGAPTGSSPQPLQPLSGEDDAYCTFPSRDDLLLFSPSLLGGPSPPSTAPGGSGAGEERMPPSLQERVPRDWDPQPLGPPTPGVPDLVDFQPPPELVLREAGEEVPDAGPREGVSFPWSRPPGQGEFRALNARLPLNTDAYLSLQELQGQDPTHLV
T5 sequence (looked up) 2: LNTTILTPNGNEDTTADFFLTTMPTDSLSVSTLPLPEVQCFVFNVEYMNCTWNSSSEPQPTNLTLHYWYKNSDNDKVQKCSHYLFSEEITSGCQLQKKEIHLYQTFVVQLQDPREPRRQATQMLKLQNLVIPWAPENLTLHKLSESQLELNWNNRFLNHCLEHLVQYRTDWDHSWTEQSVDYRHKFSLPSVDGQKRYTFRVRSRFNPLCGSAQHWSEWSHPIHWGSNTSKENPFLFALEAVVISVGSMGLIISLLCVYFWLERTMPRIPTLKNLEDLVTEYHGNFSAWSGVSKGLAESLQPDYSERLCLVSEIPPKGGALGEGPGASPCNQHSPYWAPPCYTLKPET
Put plainly: cell-based or functional assay.

The target in assay [6] is T6, murine IL-2R βγ heterodimer (β knob γ hole Fc fusion) (murine, UniProt P16297 27-240; P34902 23-263).
T6 construct: also called Mu IL-2R βγ; mouse IL-2R βγ heterodimer; not shown: Fc knob/hole part
T6 sequence (looked up) 1: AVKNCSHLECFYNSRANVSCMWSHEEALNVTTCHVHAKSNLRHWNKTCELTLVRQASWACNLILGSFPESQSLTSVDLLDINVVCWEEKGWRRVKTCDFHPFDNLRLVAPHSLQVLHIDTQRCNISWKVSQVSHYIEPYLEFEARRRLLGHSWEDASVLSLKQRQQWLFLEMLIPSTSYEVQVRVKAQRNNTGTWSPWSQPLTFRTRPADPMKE
T6 sequence (looked up) 2: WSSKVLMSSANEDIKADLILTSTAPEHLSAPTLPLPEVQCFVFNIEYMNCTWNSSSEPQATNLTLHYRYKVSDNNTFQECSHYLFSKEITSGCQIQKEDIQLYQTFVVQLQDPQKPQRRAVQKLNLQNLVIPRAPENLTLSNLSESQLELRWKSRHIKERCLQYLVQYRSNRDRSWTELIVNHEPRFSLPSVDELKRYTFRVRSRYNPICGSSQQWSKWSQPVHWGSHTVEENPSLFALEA
Put plainly: SPR, receptor on CM5, 37°C, 1:1 fit.

The target of assay [7] is T4, human IL-2R βγ heterodimer, subunit-Fc …. The experiment in a line: SPR, receptor on CM5, 37°C, 1:1 fit.
In assay [8] the target is T7, cynomolgus IL-2R βγ heterodimer (β knob γ hole Fc fusion) (cynomolgus).
T7 construct: also called Cyno IL-2R βγ
Put plainly: SPR, receptor on CM5, 37°C, 1:1 fit.

In assay [9] the target is T6, murine IL-2R βγ heterodimer (β knob γ …). The experiment in a line: SPR, receptor on CM5, 25°C, 1:1 fit.
Assay [10] has as its target T4, human IL-2R βγ heterodimer, subunit-Fc …. The experiment in a line: SPR, receptor on CM5, 25°C, 1:1 fit.
In assay [11] the target is T7, cynomolgus IL-2R βγ heterodimer (β knob …). Put plainly: SPR, receptor on CM5, 25°C, 1:1 fit.
Assay [12] deals with T8, murine IL-2R α-subunit, recombinant monomeric (murine, UniProt P01590 22-236, limits assumed).
T8 construct: also called Mu IL-2R α
T8 sequence (looked up): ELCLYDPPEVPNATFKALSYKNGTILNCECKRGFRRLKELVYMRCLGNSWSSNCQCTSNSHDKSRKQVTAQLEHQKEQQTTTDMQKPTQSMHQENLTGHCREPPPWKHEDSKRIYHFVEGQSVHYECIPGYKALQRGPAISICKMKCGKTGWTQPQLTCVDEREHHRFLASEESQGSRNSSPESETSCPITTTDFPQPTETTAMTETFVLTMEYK
Put plainly: SPR, receptor on CM5, 25°C.

Assay [13] addresses T9, cynomolgus IL-2R α-subunit, recombinant monomeric (cynomolgus, UniProt H6WS54 22-240).
T9 construct: also called Cyno IL-2R α
T9 sequence: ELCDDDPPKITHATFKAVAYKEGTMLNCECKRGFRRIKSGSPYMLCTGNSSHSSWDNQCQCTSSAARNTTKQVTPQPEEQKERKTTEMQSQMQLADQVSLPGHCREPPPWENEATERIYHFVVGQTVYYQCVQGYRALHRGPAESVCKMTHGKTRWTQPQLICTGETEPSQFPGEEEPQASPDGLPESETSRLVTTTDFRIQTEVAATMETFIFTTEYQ
The experiment in a line: SPR, receptor on CM5, 25°C.

In assay [14] the target is FAP on GM05389 fibroblasts. The experiment in a line: FACS on GM05389 fibroblasts, surface-bound construct detected with secondary antibody after the times shown (internalization analysis); concentration not shown.
Assay [15] concerns the target T2, human FAP expressed on stably …. Put plainly: FACS on HEK 293-human FAP cells, median fluorescence against concentration.

B1: 28H1 Fab-IL-2 qm-Fab (other)
chain: EVQLLESGGGLVQPGGSLRLSCAASGFTFSSHAMSWVRQAPGKGLEWVSAIWASGEQYYADSVKGRFTISRDNSKNTLYLQMNSLRAEDTAVYYCAKGWLGNFDYWGQGTLVTVSSASTKGPSVFPLAPSSKSTSGGTAALGCLVKDYFPEPVTVSWNSGALTSGVHTFPAVLQSSGLYSLSSVVTVPSSSLGTQTYICNVNHKPSNTKVDKKVEPKSCDSGGGGSGGGGSGGGGAPASSSTKKTQLQLEHLLLDLQMILNGINNYKNPKLTRMLTAKFAMPKKATELKHLQCLEEELKPLEEVLNGAQSKNFHLRPRDLISNINVIVLELKGSETTFMCEYADETATIVEFLNRWITFAQSIISTLTSGGGGSGGGGSGGGGEVQLLESGGGLVQPGGSLRLSCAASGFTFSSHAMSWVRQAPGKGLEWVSAIWASGEQYYADSVKGRFTISRDNSKNTLYLQMNSLRAEDTAVYYCAKGWLGNFDYWGQGTLVTVSSASTKGPSVFPLAPSSKSTSGGTAALGCLVKDYFPEPVTVSWNSGALTSGVHTFPAVLQSSGLYSLSSVVTVPSSSLGTQTYICNVNHKPSNTKVDKKVEPKSCD
light: EIVLTQSPGTLSLSPGERATLSCRASQSVSRSYLAWYQQKPGQAPRLLIIGASTRATGIPDRFSGSGSGTDFTLTISRLEPEDFAVYYCQQGQVIPPTFGQGTKVEIKRTVAAPSVFIFPPSDEQLKSGTASVVCLLNNFYPREAKVQWKVDNALQSGNSQESVTEQDSKDSTYSLSSTLTLSKADYEKHKVYACEVTHQGLSSPVTKSFNRGEC
notes: Fab-IL-2-Fab immunoconjugate against FAP with quadruple mutant IL-2; also called FAP 28H1 qm
For the molecule B1, the binding result in assay [1] is “no binding (tested: 300 nM)”; in assay [3] it was “no binding”; in [12], “no binding (tested: 25 nM)”; in assay [13], “no binding (tested: 25 nM)”; in [14] it was “binds”. Moreover, the EC50 (as a rule, the concentration needed to bring the measured effect to its halfway point) in assay [2] was determined as 0.7 nM. For the same molecule, the Kd was 11.4 nM in [4]; 142 nM and 106 nM in assay [6]; 14.3 nM and 14.7 nM in assay [7]; 21.3 nM and 21.2 nM in assay [8]; 66 nM and 54 nM in assay [9]; 7.5 nM and 6.9 nM in assay [10]. Further, the Kd in assay [11] was 8.9 nM and 8.4 nM. In addition, the “EC50 of STAT5 phosphorylation, CD8+ T cells” value in assay [5] was found to be 20.6 nM. Moreover, the “EC50 of STAT5 phosphorylation, NK cells” value in assay [5] turned out to be 3.47 nM. For the same molecule, the “EC50 of STAT5 phosphorylation, Treg cells” value in assay [5] worked out at 19.7 nM. Besides, the 50% effective concentration (EC50 (read off the curve)) (in general, the concentration that produces a half-maximal response) in [15] was about 10 nM.
